Experimental findings from paper PMC7899375 (PLoS ONE, 2021) are described below.

This test addresses WI/05 HA1 monomer (Influenza A virus …, UniProt Q0PED2, strain). Put plainly: ELISA. As to conditions: both partners purified.

B1: mAb #1664 (antibody, V domains shown)
VH: EVQVMQSGAEARMTGATVKISCKASGYTFSDYFLHWVKQAPGKGLEWMGLVDVDNGEVRYAEKFQGRVTITADTSTETAYLEMTTVTSGDTAVYYCASTTPRGGNPSVYNYFFVDVWGKGTTVTVSS
VL: QPVLTQSSSASASLGSSVKLTCTLSSGHDNYIIAWHQQQPGKAPRYLMQVGAGGTYNKGSGVPHRFSGSSSGADRYLTISNLQSDDEADYYCETWDSKTVFGGGTTLTVL
notes: also called private mAb; H3-specific mAb; source: HEK 293F cells, transfected (GenScript), conditioned media; purified
For the molecule B1, the binding result is given as “no binding (tested: 20 μg/mL)”.
